What was measured:
Assay in all cases: SPR
Conditions in all cases: both partners purified
[1] = biological target: T1, SARS-CoV-1 Urbani RBD (SARS-CoV-1 Urbani)
T1 construct: source: Expi293F, purified (cobalt IMAC, SEC)

[2] = biological target: T2, WIV1 RBD (Bat SARS-like coronavirus WIV1)
T2 construct: source: Expi293F, purified (cobalt IMAC, SEC)

[3] = biological target: T3, SARS-CoV-1 (Urbani) RBD (SARS-CoV-1 Urbani)
T3 construct: source: Expi293F, purified (cobalt IMAC, SEC)

[4] = biological target: T4, SARS-CoV-2 Wuhan-Hu-1 RBD (SARS-CoV-2, UniProt P0DTC2)
T4 construct: source: Expi293F, purified (cobalt IMAC, SEC)

B1: VIR-7229 Fab (obtained by fragmentation of the IgG) (Fab, V domains shown)
VH: EVQLVESGGSVVQPGRALRLSCAASGITFSSFGMYWVRQAPGKGLEWLGYIAYDGSDTYYADSVKGRFTISRDNSKNTLYLQMNSLRIEDTAVYYCAKDYYPLLSYYYGLDVWGQGTTVTVSS
VL: QSVLTQPRSVSGSPGQSVTISCTGTSSDVGAYNYVSWYQQHPGKAPKFMIYDVDQRPSGVPDRFSGSKSGNTASLIISGLQAEDEADYYCSSYAGSYIWVFGGGTQLTVL
B1: binds [1].

B2: VIR-7229 Fab fragment (Fab, V domains shown)
VH: EVQLVESGGSVVQPGRALRLSCAASGITFSSFGMYWVRQAPGKGLEWLGYIAYDGSDTYYADSVKGRFTISRDNSKNTLYLQMNSLRIEDTAVYYCAKDYYPLLSYYYGLDVWGQGTTVTVSS
VL: QSVLTQPRSVSGSPGQSVTISCTGTSSDVGAYNYVSWYQQHPGKAPKFMIYDVDQRPSGVPDRFSGSKSGNTASLIISGLQAEDEADYYCSSYAGSYIWVFGGGTQLTVL
notes: source: ExpiCHO (IgG1); Fab by fragmentation of the IgG with the FabLACTICA Fab kit
B2 showed a Kd [2] of 7.85 nM, a koff [2] of 0.00304 s⁻¹ and a kon [2] of 387000 M⁻¹ s⁻¹. The Kd [3] was 2.46 nM, the koff [3] was 0.000912 s⁻¹ and the kon [3] was 375000 M⁻¹ s⁻¹. For the same binder, the Kd [4] was 0.185 nM, the koff [4] was 3.67e-05 s⁻¹ and the kon [4] was 199000 M⁻¹ s⁻¹.

Source: publication PMC11645210 (Cell, 2024)
